# Laboratory results from patent US20240409645A1 (DUALYX, published 2024).
# Substitutions are numbered along the chain they refer to.
# T1: human IL-2Rγ (common cytokine receptor γ-chain) (human, UniProt P31785 23-262, limits assumed)
# T1 construct: Recombinant protein coated on the plate or immobilised on a CM5 chip; also called hu IL-2R; CD132
# T1 sequence: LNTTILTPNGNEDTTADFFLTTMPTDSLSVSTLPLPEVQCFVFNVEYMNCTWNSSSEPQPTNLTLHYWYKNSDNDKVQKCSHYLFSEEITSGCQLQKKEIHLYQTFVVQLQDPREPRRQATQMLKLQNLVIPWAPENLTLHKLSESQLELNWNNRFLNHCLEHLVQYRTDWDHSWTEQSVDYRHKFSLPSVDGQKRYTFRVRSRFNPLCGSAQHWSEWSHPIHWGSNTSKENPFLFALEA
# T2: human IL-2Rβ (human, UniProt P14784 27-240, limits assumed)
# T2 construct: Recombinant protein, coated (ELISA) or immobilised on CM5 (SPR); also called hu IL-2R; interleukin 2 receptor β-chain
# T2 sequence: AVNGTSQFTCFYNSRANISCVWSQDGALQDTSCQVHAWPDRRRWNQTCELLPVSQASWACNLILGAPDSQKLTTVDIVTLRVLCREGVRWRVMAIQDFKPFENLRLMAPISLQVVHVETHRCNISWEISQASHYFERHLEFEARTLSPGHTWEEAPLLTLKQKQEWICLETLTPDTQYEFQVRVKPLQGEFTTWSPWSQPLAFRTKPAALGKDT
# B1: 35-MP07G01 (VHH)
# VHH: QVQLQESGGGLVQGGGSLRLSCAASGGIFSSYAMGWFRQAPGKEREFVAAISRSGRSTNYADSVKGRFTISRDNAKSTVYLQMNSLKPEETAVYYCAAGRYYNSAYDPSPGDFGSWGHGTQVTVSS
# notes: VHH in periplasmic extract; also called FJ1427_P035MP07G01; clone nr
# B2: FJ1427 P035MP06G01 (VHH)
# VHH: EVQLVESGGGLVQAGDSLRLSCVVSGRGFSTYTMGWFRQAPGKEREFVAAITWSTGRTSYADSVKGRFTISRENAENTVYLQMNSLELEDTAVYYCATDQVLWTTRPRDMRYWGQGTQVTVSF
# notes: soluble VHH in periplasmic extract; also called clone nr
# B3: FJ1427 P035MP03A06 (VHH)
# VHH: EVQLVESGGGLVQTGGSLRLSCAVSGSRFISDVMGWYRQVPGKARELVADMADGGSAKYADSVKGRFSIVRDSGKSTMYLQMSSLKPEDTGMYYCKAGLWIAGRHSDYWGQGTQVTVSS
# notes: as for B2
# B4: FJ1427_P035MP03H09 (VHH)
# VHH: QVQLVESGGGLVQAGGSLRLSCAASGSIFSINAMGWFRQAPGKEREFVAAISRSGGSTAYVDSVKGRFTISRDNSKNMVHLQMNSLKSEDEAVYYCAATAAVGWTSRWITTDFDSWGQGTQVTVSS
# notes: as for B2
# B5: FJ1427 P035MP03F11 (VHH)
# VHH: QVQLVESGGGLAQAGGSLRLSCAASGRTFSQDAKAWFRQAPGKEREFVAAITWSGRDTDYADSVKGRFTIARDNAKNTVYLQMDSLKPEDTAVYYCAVYPQGTIGPYFRSSNHYDYWGQGTQVTVSS
# notes: as for B2
# B6: FJ1427_P035MP03C07 (VHH)
# VHH: QVQLVESGGGLVQAGDSLRLSCAASGRSLSTDCMGWVRQAPGKEREFVAGITWGTGSTLYADSVEGRFTISKDNAKNTGYLQMSSLKPEDTAVYYCAVDRYCYRGTVYRDWGRGTQVTVSS
# notes: as for B2
# B7: FJ1427_P035MP03G10 (VHH)
# VHH: QVQLVESGGGLVQAGGSLRLSCAASGRSYAMGWFRQAPGKEREFVAAISWSASSTYYSESVKGRFTISRENAKNTVYLQMNSLKPEDTAVYYCAVRASPFVAGSYDPSDDPADYGSWGQGTQVIVSS
# notes: as for B2
# B8: FJ1427 P035MP03H10 (VHH)
# VHH: QVQLVESGGGLVQAGGSLRLSCAASGRTFSTTEMGWFRQAPGKEREFVAAITWTGRGTMYAESVEGRFTISRENAKNMVYLQMNSLKPEDTAIYYCAAARRGRAAVRSEGGYDFWGQGTQVTVSS
# notes: as for B2
# B9: FJ1427_P035MP03G07 (VHH)
# VHH: QVQLVESGGGLVQAGGSLRLSCAASGRTFSSDAKGWFRQAPGKEREFVAAITWAGRGTDYADSVKGRFTITRDNAKNMVYLQMSNLKPEDTAVYYCALNPEGVIGPYFRNSNRYNYWGQGTQVTVSS
# notes: as for B2
# B10: FJ1427_P035MP03A09 (VHH)
# VHH: QVQLVESGGGLVQAGGSLRLACAASGRTFSTLTMGWFRQAPGKEREFVAGISPSGGYAWHADSVKGRFTIDRDNAKNTVYLQTRSLRPEDTAVYYCAADHPPYGAVASRSEYEYDDWGPGTRVTVSS
# notes: as for B2
# B11: FJ1427 P035MP03E05 (VHH)
# VHH: EVQLVESGGGLVQAGGSLRLSCAVSGVIFWSDVVGWYRQASGKQRELVATINLDDTKHYGEVVKGRFAISRDSHKNAYYLQLNSLKPEDTAVYYCNVRRGSEFYWGQGTQVTVSS
# notes: as for B2
# B12: FJ1427_P035MP03E08 (VHH)
# VHH: QVQLVESGGGLVQAGGSLRLSCAAAGRAIENYPVGWFRRAPGKEREFVAAITWISGSTLYADSVKGRFTISRDNAKNTVYLQMSSLKPEDTALYYCAAALKTITRGQNDYSYWGQGTQVTVSS
# notes: as for B2
# B13: FJ1427 P035MP03F09 (VHH)
# VHH: B12 VHH with Q1E, R19T, A25S, I29F, E30S, R39Q, I54L, K65E, Q82L, Y95F
# notes: as for B2
# B14: FJ1427_P035MP03A07 (VHH)
# VHH: QVQLVESGGGLVEAGGSLRLSCAASGRAFNNFPMGWFRQAPGKEREFVAAITWISGSTLYADSVKGRFTISRDKSKNTVYLQMSGLKPEDTALYYCAAALKTITRGQHDYTYWGQGTQVTVSS
# notes: as for B2
# B15: FJ1427 P035MP03D11 (VHH)
# VHH: QVQLVESGGGLVQAGGSLRLSCAASGRTFSTTDVGWFRQAPGKEREFVAAITWSSHSTLYADSVEGRFTVTRENAKNTVYLQMNSLKPEDTAVYYCAAVRRGWAVVRTEGAYDFWGQGTQVTVSA
# notes: as for B2
# B16: FJ1427_P035MP03E11 (VHH)
# VHH: EVQLVESGGGLVQAGGSLRLSCVVSGDVFVRYTMAWFRQAPGKEREFVAAVTDSGRTTEYVDSVKGRFTVSRDNAKNTVYLQMNNLEPEDTAVYYCAANTDYFQIRSVDNNAWGQGTQVTVSS
# notes: as for B2
# B17: FJ1427_P035MP03G11 (VHH)
# VHH: B16 VHH with V23A, V24A, A50S, E59D, E87K, V108L, D109E, N110F, A112T
# notes: as for B2
# B18: FJ1427_P035MP06B02 (VHH)
# VHH: B16 VHH with E1Q, E87K
# notes: soluble VHH in periplasmic extract; also called clone nr; 490
# B19: FJ1427_P035MP03G09 (VHH)
# VHH: B16 VHH with E1Q, A50V, E87K
# notes: as for B2
# B20: FJ1427_P035MP06H01 (VHH)
# VHH: B16 VHH with V23A, A50S, E59D, D62H, E87K, R106K, V108L, N110A, A112T
# notes: as for B2
# B21: FJ1427_P035MP06A01 (VHH)
# VHH: QVQLVESGGGLVQAGGSLRLACALSGDVFVRYTMAWFRQAPGKEREFVASVTDSGRTTDYVASVQGRFTVSRDNNKNTVYLQMNSLKPEDTAVYYCAANTDYFQIRSLDRNTWGQGTQVTVSS
# notes: as for B2
# B22: FJ1427_P035MP03H07 (VHH)
# VHH: B16 VHH with E87K
# notes: as for B2
# B23: FJ1427_P035MP03G08 (VHH)
# VHH: B21 VHH with E44G
# notes: as for B2
# B24: FJ1427_P035MP06E02 (VHH)
# VHH: B16 VHH with E1Q, V23A, A50T, E87K, Q104R, V108L, N110A, A112T
# notes: as for B2
# B25: FJ1427_P035MP06C01 (VHH)
# VHH: B21 VHH with A21S, L24A, A62D, Q65K, N75A, S85A, R106K, R110L
# notes: as for B2
# B26: FJ1427_P035MP03G05 (VHH)
# VHH: EVQLVESGGGLVQIGGSLRLSCAASGRTFSSITMAYFRQVPGKEREWVAGINFSGTRTFYADSVKGRFLISRDDAKSTMYLQMNSLKPEDTAVYYCAASPRGFYGPGNALYDYWGQGTQVTVSS
# notes: as for B2
# B27: FJ1427_P035MP03D10 (VHH)
# VHH: QVQLQESGGGLVQAGDSLRLSCVVSGRDFSGYTMGWFRQPPGKEREFVALITWSTGRVHYTDSVEGRFTISRDSAKNTVYLQMNSLKPEDTAVYTCAAGRVGYTTNLHSYDYSGQGTQVIVSA
# notes: as for B2
# B28: FJ1427_P035MP03E10 (VHH)
# VHH: EVQLVESGGGLVQPGGSLRLSCAASGFTFRNYAMSWVRQAPGKGLEWVGGITGEGLGTIYQDSVEGRFTISRNNAKNTLYLQMNSLRSEDTAVYYCTKMASGTLFRDKPYEYTSRGQGTQVTVSS
# notes: as for B2
# B29: FJ1427 P035MP03C12 (VHH)
# VHH: QVQLVESGGGLVQAGGSLRLSCAASGRAFSTYSMGWFRQTPGKEREFVAIISESGGIIDYGDSVKGRFTLSRDNAKNTVSLQMSSLQPEDTAVYYCAAARDWFARTAYQYDYWGQGTQVTVSA
# notes: as for B2
# Molecular target: T1, human IL-2Rγ (common cytokine receptor …)
# Test: PE binding ELISA, periplasmic extract on coated protein
# Experimental: (§1) In a binding ELISA, human or mouse IL-2Rα, IL-2Rβ and IL-2Rγ proteins were coated directly on maxisorp microtiter plates overnight at 4° C. Free binding sites were blocked using 4% Marvel in PBS for 1 hour. Next, 1:5 dilution of P.E. in 1% Marvel/PBS were added to wells and incubated for 1 hour. […] Binding specificity was determined based on O.D. at 450 nm values compared to negative controls.
row,Binder,OD (PE binding ELISA) [OD450 nm]
1,B1,0.134

# Molecular target: T2, human IL-2Rβ
# Test: P.E. binding ELISA on coated protein
# Experimental: as §1
row,Binder,P.E. binding ELISA OD [OD450 nm]
1,B2,0.557
2,B3,0.393
3,B4,0.166
4,B5,0.474
5,B6,0.372
6,B7,0.26
7,B8,0.578
8,B9,0.201
9,B10,0.208
10,B11,0.23
11,B12,1.11
12,B13,0.621
13,B14,0.307
14,B15,0.118
15,B16,0.624
16,B17,0.38
17,B18,0.435
18,B19,0.843
19,B20,0.72
20,B21,0.348
21,B22,0.649
22,B23,1.26
23,B24,0.148
24,B25,1.34
25,B26,0.914
26,B27,0.118
27,B28,0.398
28,B29,0.321

# Molecular target: T2, human IL-2Rβ
# Test: SPR (Biacore), P.E. off-rate ranking
row,Binder,koff [s⁻¹]
1,B2,0.000143
2,B3,0.000195
3,B4,0.00184
4,B5,0.000277
5,B6,0.000533
6,B7,0.00165
7,B8,0.00109
8,B9,0.00286
9,B10,0.00048
10,B11,0.000526
11,B12,0.000149
12,B13,0.000347
13,B14,0.000281
14,B15,0.00102
15,B16,0.00148
16,B17,0.00122
17,B18,0.000853
18,B19,0.000713
19,B20,0.00101
20,B21,0.000561
21,B22,0.00172
22,B23,0.00055
23,B24,0.00149
24,B25,0.000544
25,B26,0.000351
26,B27,0.0012
27,B28,0.00207
28,B29,0.0014
